The DeepSol protein solubility set

Assay: soluble on expression in E. coli; label from the status in PepcDB or PDB records

Sequence	soluble on expression in E. coli
MGSDKIHHHHHHMTAISREVPRTPHDLSLYLTRLGLTAPDLGSAMQPVLDVLVSRTAAVGAGYFQLRDSTLTYQARAASGDLPQGPLMEALLAHGLPPELPLVQALEAADGALFFEDTRLDPQAAGFADLGVLALTAAPVHNQSGRLVGALLSHVFAPHPWSAEERQLVSTVTGLLTLLAARLDAEERERAAHESALRALGLMLEARDTETQGHTDRVTALALRLGRALGLSDTELRDLRWGAYLHDIGKIAIPDAILHCPGTLDLAAWARMQEHVNEGTRLAAQLPFLPRAALDVIACHHECWDGSGYPRGLAGEAIPRHARIFAACDVYDALVSARPYKRAWTHAEATAYLEQRSGHQFDPVIVRALLRVLEDEDSAAANA	not soluble
MVRGFYLRFGEGVSEEANRRALALAEALLRAPPPGLLDAVPAYGVLYLEYDPRRLSRGRLLRLLKGLPQERAEEGRVVEIPVRYDGEDLPEVASRLGLSLEAVKALHQKPLYRVYALGFTPGFPFLAEVEPALRLPRKPHPRPRVPAHAVAVAGVQTGIYPLPSPGGWNLLGTSLVAVYDPHRETPFLLRPGDRVRFLEAEGPTPPEPRPLELLPEEPRLPALLVEEPGLMDLVVDGGRFLGGHLGLARSGPLDAPSARLANRLVGNGAGAPLLEFAYKGPVLTALRDLVAAFAGYGFVALLEGEEIPPGQSFLWPRGKTLRFRPRGPGVRGYLAVAGGLEVRPFLGSASPDLRGRIGRPLWAGDVLGLEALRPVRPGRAFPQRPLPEAFRLRLLPGPQFAGEAFRALCSGPFRVARADRVGVELLGPEVPGGEGLSEPTPLGGVQVPPSGRPLVLLADKGSLGGYAKPALVDPRDLWLLGQARPGVEIHFTSG	soluble
VARAVGKENKSEFGVPSVVEMRPPALCEGCGHRDMYITLTEVLKEEYPSHKVFSDIGCYTLGANAPFNAINSCVDMGASITMAKGAADGGLHPSVAVIGDSTFTHSGMTGLLDCVNENANVVIVISDNETTAMTGGQDSAGTGRIESICIGLGVDPAHIRVVVPLKKNHEEMRQIIREEIEYNGVSVIIPRRECIQTLARKKRSK	not soluble
MEHFHGNRWDQLRAVEADILCPPPADPFQIFPSGWTRASELSEKGWRELLDRRRSQSPPPREPSPDVRRAIRRTPPPRVNRVAPIRLPERRPLRQLNANDARRPAQDAANRINQENMRAGNIDNGQPRRRALSPTQLPGVRAIPKDFNRFFRGLLTPGEFFAKSQTRYLGPFDEMPTEDTLPAADEYIILQRMGRLPDSGKSIFRQVGNLST	not soluble
MSLEKVKVAVIGAGNRGMYAYAPYIYENSDVCEIVAVAEPKKGRRELFTKKYNLDSKNVFETLEDFFKHDKMADAVIIATNDDRHYDVAKLALEKGYHVLLEKPMSNSLDGLVHIDDLCDKYKDKIFMICHVLRYSPFYNKLKEIVESKKLGELVSIQYNENIGYWHFAHSFTRGNWRNSNETSPLILAKSCHDMDILLYLVGSRCKKISAFGSLKHLNNQNASGEMAQNCLQCLVEKKCPYSAKRIYLEKDRSINRAVHINPTEENLLNILKTSPYGRCVYRCDNNVVDNMVNILQFENGVTATFNLCAFTKENGRTIKLMFSHGEVGGDLNKNEIRIKEFGKNEEIVMNPSNQQNMVEEYDRNLIAEFIKLVSNKELEKGRVAAKEAIQSHVMAFAAEYSRVSDEVVYIEEFFDSAKQMTKEIEETEGHHHHHH	soluble
MGSDKIHHHHHHMKTYLVGGSVRDEILGLPVTDHDYVVVGVSPEEMVHLGFRPVGKDFPVFLHPQSQEQYALARTERKVSRGYKGFEVYASPEVTLQEDLARRDLTINAIAKDEYGNIIDPFGGIADLEAGVLRHIGPAFTEDPVRVLRTARFAARFGFHIAPETLALMNEMVHNGEVDALVSERVWQEIARGLMERHPSRMFYALRDCGALTRIMPEVDALFGVPQPPQHHPEIDTGVHVMMVIDYAASRNYSLQVRFAALTHDLGKGTTPPEEWPRHIGHEARSVRLVQGLCERINPPNEMRNLALLVARYHGDVHRAAELRPVTIANLLQGVDAYRKPERFEEFLQACACDFHGRPGYATRPYPQADRLREAFQAARSVDAGAIAKEMARNVSDPSRLPVAINTRVSETRIAEIRNRLGSLA	not soluble
MDVTNDDYIRLLSALLPPGPVWSASDPAIAGAAPSLTRVHQRADALMRELDPRTTTELINRWERLCGLPDECIPAGTQTLRQRQQRLDAKVNLAGGINEDFYLAQLAALGRPDATITRYDKSTFTCSSACTDAVNAPEWRYYWQVNMPATTNSTWMTCGDPCDSALRIWGDTVVECVLNKLCPSHTYVIFKYPE	soluble
MSLNSTLHIPKAEIHVHLEATITPSLCRKFAERNKVKLSEDIFGSEYAYQWEDFYDFIKRYDIVTGVIYTPEDYYELTYEYLKECASYNVLYVEAMVSSTHAKAKGMTYHSFLDSVHQASQDAERDFGIVSRYLMNGIRHLGADSVQETAKEVLNNPHPALVGFGLAGDELNFPPNLFTKTFDMLKQESYPITVHAGEWDGPENIRNAIHLLHPTRLGHGVRSIEDLDLVKEIVEKDIVLETCPTSNIATKIYENYESHPVKKLHDLGVRVTVNSDDPPFFNATIQGEYDAMAGIGFSAQELLSMTRNAIESSFLPEDKKTEILTKLNEGHHHHHH	soluble
MSAIKEVKSELRQFMKTLLGKISKEETQRQTEAVFEKIIESKWFQESKRLSVYVSTSGEIQTDSIIQKALEMGKEVFIPQFTKGSTAMDMVRVPDQTAFDNLPSTLWGIRQPEPKWKWQSYHETGPLDLILAPGVAFSPYGLRCGHGKGYYDRFFSTHHKHFPENSPKKIGLALREQIIGTIPISETDVELDEVIYEGETIIFDTI	soluble
MRSDGRKEDQLRPVSIQRDFLEYPEGSCLISFGKTKVICTASVIENVPNWLKGKGQGWITAEYSMLPRATQQRTIRESVQGRIGGRTHEIQRMIGRAMRTAVELTKIGERTIWVDCDVIQADGGARTAAITGAFVAVADAIIKLHKEGIIEETPIKDFVAAVSVGIVNDRILLDLNFEEDSAAQVDMNVVGTGSGRLSEVHTMGEEYSFTKDELIKMLDLAQKGINELIELQKKLYVIQDGKWERSELKEVSSTT	soluble
MIIKPRIRGFICTTTHPVGCEANVKEQIAYTKAQGPIKNAPKRVLVVGASSGYGLSSRIAAAFGGGASTIGVFFEKEGTEKKPGTAGFYNAAAFEKLAREEGLYAKSLNGDAFSNEAKQKTIDLIKEDLGQVDMVVYSLASPVRKMPETGELIRSALKPIGETYTSTAVDTNKDVIIEASVEPATEEEIKDTVTVMGGEDWELWINALSDAGVLAEGCKTVAYSYIGTELTWPIYWDGALGKAKMDLDRAAKALNEKLGATGGSANVAVLKSVVTQASSAIPVMPLYIAMVFKKMREEGVHEGCMEQIYRMFSQRLYKEDGSAAEVDDMNRLRLDDWELREDIQQHCRELWPQITTENLKELTDYVEYKEEFLKLFGFGVEGVDYEADVNPAVETDFIQI	soluble
MVADVKSPAGLAAFNTTLAEQAFATGFVLSGEDAQLFAALGSAPNASTYPNVARWYANVASYTDAERKTWASAGGSAPAAAAADGDDFDLFGSDDEEEDAEKAKIVEERLAAYAEKKAKKAGPIAKSSVILDVKPWDDETDLGEMEKLVRSIEMDGLVWGGAKLIPIGYGIKKLQIITVIEDLKVSVDDLIEKITGDFEDHVQSVDIVAFNKI	not soluble
MGSDKIHHHHHHMNSMDATAAHHTSPNATLVYDIRHSRYLNITGRCTLRCGFCPKQQGSRQIHQYQLALDKQPGVDDLLPLLGDVDTFDEYVFCGYGEPTLNLPTLLGVARAIKSQGGRIRVNTDGLGNLFHKRNILPELADCVDALSVSLNAQDEFTYLKHCQPRLKGSWQAVNDFIRMAPAYIKRVEVSAIDGLPGVDIPACRALVEAAGCTFKHRKLDIMG	not soluble
MYDTEIPYEGKISIYTYFCKECGYRKTEVYSDEKRDPKKITIRIENPDDLRIIVYRSRRADVYIPEMEASIDSAEYSNGEITTIEGIIYRIGEKLDLLAADDQNNKKIASLRKRIDGIINGKFESFTLIIMDESGKSVVHSDKAMVESMD	soluble
MSNIYDSANELSRGLRGLPEYKAVKAAKDAIAADAEASKIFTDYLAFQEEIQKLAQTGQMPDASFQAKMEGFGKQIQGNSLLSEFFTKQQQLAIYLSDIEKIVFEPVSELLK	soluble
